From paper PMC11074299

Biological target: T1, wild-type full-length FADD (FADD^FuL) (human), Q13158
T1 chain: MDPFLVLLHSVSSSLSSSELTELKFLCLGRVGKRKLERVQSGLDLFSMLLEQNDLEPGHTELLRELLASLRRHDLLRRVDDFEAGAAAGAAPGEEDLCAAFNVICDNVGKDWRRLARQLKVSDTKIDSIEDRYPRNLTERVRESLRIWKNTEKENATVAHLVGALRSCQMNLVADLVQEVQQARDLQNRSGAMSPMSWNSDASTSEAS
Assay: cryo-EM structure; FA^FuL-C8^FuL_FGLG_CADA-CF complex; Complex A without cross-linking (7.5 Å) and Complex B stabilised by GraFix, glutaraldehyde (3.7 Å); Casp-8 protease domain and FADD DD not visible
Details: remark: other sources report otherwise

stoichiometry N: 3
B1: wild-type full-length FADD (FADD^FuL), Q13158 1-208 (natural protein)
chain: T1 chain
